T1: I domain of α11β1 (Homo sapiens, UniProt Q9UKX5)
T1 construct: An in-house generated I domain of α11β1 was used; made in house
T1 sequence (Q9UKX5 164-345 limits assumed): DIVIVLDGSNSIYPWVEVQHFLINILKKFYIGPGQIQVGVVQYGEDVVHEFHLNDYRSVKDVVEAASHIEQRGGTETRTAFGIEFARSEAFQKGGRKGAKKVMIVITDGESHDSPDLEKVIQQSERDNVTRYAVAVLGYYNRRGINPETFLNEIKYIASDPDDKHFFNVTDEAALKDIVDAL

B1: 7-H14: mouse anti-α11β1 mAb; VH SEQ ID NO: 121, VL SEQ ID NO: 122 (antibody, V domains shown)
VH: QVQLQQPGAELVRPGASVKLSCKPSGYTFTSYWMNWVKQRPGQGLEWIGMIDPSDSETHYNQMFKDKATLTVDKSSNTAYMQLSSLTSEDSAVYYCAQIYYAYDKAYWGQGTLVTVSA
VL: DIVMSQSPSSLAVSVGEKVTMSCKSSQSLLYSSHQKNYLAWYQQKPGQSPKLLIYWASTRESGVPDRFTGSGSGTDFSLTISSVKAEDLAVYYCQEYYSWTFGGGTKLEIK
B2: 7D8B10: rat anti-α11β1 mAb; VH SEQ ID NO: 153, VL SEQ ID NO: 154 (antibody, V domains shown)
VH: MDLRLTYVFIVAILKGVLCEVKLEESGGGLVQPGMSVKLSCATSGFIFSDYWMEWVRQAPGKGLEWVAEIRNKANNYATYYGKSMKGRFTISRDDSKSIVYLQVNSIRSEDTAIYYCAPNFDYWGQGVMVTVSS
VL: MSPVQSLFLLLLWILGTHGDVVLTQTPPTLSATIGQSVSISCRSSQSLLHSTGNTYLNWLLQRPGQPPQLLIYLVSRLESGVPNRFSASGSGTDFTLKISGIEAEDLGVYYCVQSSHTPYTFGTGTKLELK
B3: 6-M8: mouse anti-α11β1 mAb; VH SEQ ID NO: 129, VL SEQ ID NO: 130 (antibody, V domains shown)
VH: QVQLQQPGAELVMPGASVKLSCKASGYTFTNYWMHWVKQRPGQGLEWIGEIDPSDSYTNYNQKFKGKATLTVDKSSSTAYMQLSSLTSEDSAVYYCTRQGSTYAWGQGTSVTVSS
VL: DIVMTQAAFSNPVTLGTSASISCRSSKSLLHSNGITYLYWYLQKPGQSPQLLIYQMSNLASGVPDRFSSSGSGTDFTLRISRVEAEDVGVYYCAQNLELPPTFGGGTKLEIK
B4: 6G4: rabbit anti-α11β1 mAb; heavy chain SEQ ID NO: 181, light chain SEQ ID NO: 182 (antibody)
heavy: METGLRWLLLVAVLKGVQCQQQLEESGGGLVKPGGTLTLTCKASGVALNPYYYMCWVRQAPGKGLEWIACVDADSSGSTYYASWAKGRFTISKTSSTTVTLKMTSLTAADTATYFCARESVDYSSVGIGYVHGTDGLWGPGTLVTVSSGQPKAPSVFPLAPCCGDTPSSTVTLGCLVKGYLPEPVTVTWNSGTLTNGVRTFPSVRQSSGLYSLSSVVSVTSSSQPVTCNVAHPATNTKVDKTVAPSTCSKPMCPPPELPGGPSVFIFPPKPKDTLMISRTPEVTCVVVDVSQDDPEVQFTWYINNEQVRTARPPLREQQFNSTIRVVSTLPIAHQDWLRGKEFKCKVHNKALPAPIEKTISKARGQPLEPKVYTMGPPREELSSRSVSLTCMINGFYPSDISVEWEKNGKAEDNYKTTPTVLDSDGSYFLYSKLSVPTSEWQRGDVFTCSVMHEALHNHYTQKSISRSPGK
light: MDTRAPTQLLGLLLLWLPGARCADIVVTQTPSSVSAAVGGTVTIKCQASQSISNYFSWYQQKPGQPPKLLIYRASTLASGVPSRFKGSGSGTEFTLTISDLECADAATYYCQCTYGRSNSNFFYGFGGGTEVVVKGDPVAPTVLIFPPAADQVATGTVTIVCVANKYFPDVTVTWEVDGTTQTTGIENSKTPQNSADCTYNLSSTLTLTSTQYNSHKEYTCKVTQGTTSVVQSFNRGDC
B5: 4E1: rabbit anti-α11β1 mAb; heavy chain SEQ ID NO: 195, light chain SEQ ID NO: 196 (antibody)
heavy: METGLRWLLLVAVLKGVQCQSLEESGGDLVKPGTSLTLSCTASGFSFGSYYYMCWVRQAPGKGLEWIACIDVGSSGDTYYASWVNGRFTISKTSSTTVTLQMTSLTAADTATYFCARDDTAAGGFGNLELWGPGTLVTVSSGQPKAPSVFPLAPCCGDTPSSTVTLGCLVKGYLPEPVTVTWNSGTLTNGVRTFPSVRQSSGLYSLSSVVSVTSSSQPVTCNVAHPATNTKVDKTVAPSTCSKPMCPPPELPGGPSVFIFPPKPKDTLMISRTPEVTCVVVDVSQDDPEVQFTWYINNEQVRTARPPLREQQFNSTIRVVSTLPIAHQDWLRGKEFKCKVHNKALPAPIEKTISKARGQPLEPKVYTMGPPREELSSRSVSLTCMINGFYPSDISVEWEKNGKAEDNYKTTPTVLDSDGSYFLYSKLSVPTSEWQRGDVFTCSVMHEALHNHYTQKSISRSPGK
light: MDTRAPTQLLGLLLLWLPGARCAFELTQTPSSVSEPVGGTVTIKCQASQSIYSYFSWYQQKPGQPPKRLIYQASTLASGVPSRFKGSGSGTDFTLTISDLECADAATYYCQNNYGRGSGSYFFGFGGGTEVVVKGDPVAPTVLIFPPAADQVATGTVTIVCVANKYFPDVTVTWEVDGTTQTTGIENSKTPQNSADCTYNLSSTLTLTSTQYNSHKEYTCKVTQGTTSVVQSFNRGDC
B6: 9-B11: mouse anti-α11β1 mAb; VH SEQ ID NO: 115, VL SEQ ID NO: 116 (antibody, V domains shown)
VH: QVQLQQPGAELVRPGTSVKLSCKASGYTFTSYWMHWVQQRPGQGLEWIGVIDPSDSYTNYNQKFKGKATLTVDTSSSSAYMQLSSLTSEDSAVYYCARDDVAMDYWGQGTSVTVSS
VL: DIVVTQSPASLAVSLGQRATISCRASESVDSYGNSFIHWYQQKPGQPPKLLIYRASNLKSGIPARFSGSGSRTDFTLTINPVEADDVATYYCQQSNEDPYTFGGGTKLEIK
B7: 6F9: rabbit anti-α11β1 mAb; heavy chain SEQ ID NO: 183, light chain SEQ ID NO: 184 (antibody)
heavy: METGLRWLLLVAVLKGVQCQSLEESGGDLVKPGASLTLTCTASGSSFSSTYWNCWVRQAPGKGLEWIACINAGSGTTYYASWAKGRFTVSKTSSTTVTLQMTSLTAADTATYFCTRDSDGRFSSGYYFNLWGPGTLVTVSSGQPKAPSVFPLAPCCGDTPSSTVTLGCLVKGYLPEPVTVTWNSGTLTNGVRTFPSVRQSSGLYSLSSVVSVTSSSQPVTCNVAHPATNTKVDKTVAPSTCSKPMCPPPELPGGPSVFIFPPKPKDTLMISRTPEVTCVVVDVSQDDPEVQFTWYINNEQVRTARPPLREQQFNSTIRVVSTLPIAHQDWLRGKEFKCKVHNKALPAPIEKTISKARGQPLEPKVYTMGPPREELSSRSVSLTCMINGFYPSDISVEWEKNGKAEDNYKTTPTVLDSDGSYFLYSKLSVPTSEWQRGDVFTCSVMHEALHNHYTQKSISRSPGK
light: MDTRAPTQLLGLLLLWLPGATFAQVLTQTASPVSAAVGGTVTINCQSSQSVYDNNWLAWYQQKPGQPPKLLIDDASKLTSGVSSRFKGSGSGTQFTLTISGVQCDDAATYYCQGAYYSSGWYWAFGGGTEVVVKGDPVAPTVLIFPPAADQVATGTVTIVCVANKYFPDVTVTWEVDGTTQTTGIENSKTPQNSADCTYNLSSTLTLTSTQYNSHKEYTCKVTQGTTSVVQSFNRGDC

tested on: human pulmonary fibroblasts (HPFs); experiment: FACS antibody binding to human pulmonary fibroblasts; details: binding Yes/No

HPF FACS	Molecule
No	B1
No	B2
No	B3
No	B4
No	B5
No	B6
No	B7

target: T1, I domain of α11β1; experiment: ELISA binding to in-house generated I domain of α11β1; details: Yes/No
Outline: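 Plate-coated antigen (0.25 μg/mL, overnight 4° C) probed with antibody dilution series 1 h at room temperature, then biotinylated anti-IgG and streptavidin-HRP, 1 h each. TMB substrate 5 min, stopped, absorbance at 450 nm; in-house I domain of α11β1 used as target.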

I Domain binding	Molecule
No	B1
No	B2
No	B3
No	B4
No	B5
Yes	B6
No	B7

tested on: myofibroblasts (MF); experiment: FACS antibody binding to myofibroblasts; design: species or system human; details: binding Yes/No
Outline: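 Human pulmonary fibroblasts, serum-starved 24 h then TGFβ-1-treated 72 h to give myofibroblasts, were blocked with heat-inactivated FBS and stained with anti-α11 antibodies, then PE secondary, 30 min each at 4 °C, before 1% PFA fixation. Binding read by flow cytometry as PE geometric MFI of single cells.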

MF FACS	Molecule
Yes	B1
Yes	B2
No	B3
Yes	B4
Yes	B5
Yes	B6
Yes	B7

tested on: Human Pulmonary Fibroblasts; experiment: Fibroblast-to-Myofibroblasts Transition (FMT), αSMA expression; assay type: cell-based; details: Yes/No
Outline: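 Cells seeded at 20,000/well, serum-starved 24 h, then given TGFβ-1 with or without anti-α11 antibodies for 48 h; polyclonal anti-α11 and isotype IgG served as controls. Fixed, permeabilized cells were stained for αSMA and analysed by flow cytometry (single-cell gMFI). Values are normalized to untreated control as % inhibition.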

Molecule	Inhibition of FMT
B1	No
B2	Yes
B3	No
B4	No
B5	No
B6	Yes
B7	No

target: human α11β1 (Homo sapiens, UniProt Q9UKX5); experiment: ELISA binding to recombinant human α11β1; details: binding Yes/No
Outline: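 Wells coated overnight at 4 °C with 0.25 μg/mL recombinant α11β1, blocked with 2% BSA, then given a range of antibody concentrations for 1 h at room temperature. Bound antibody detected with biotinylated anti-IgG, streptavidin-HRP and TMB; absorbance read at 450 nm.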

Sequence of human α11β1 (Q9UKX5 23-1141 limits assumed): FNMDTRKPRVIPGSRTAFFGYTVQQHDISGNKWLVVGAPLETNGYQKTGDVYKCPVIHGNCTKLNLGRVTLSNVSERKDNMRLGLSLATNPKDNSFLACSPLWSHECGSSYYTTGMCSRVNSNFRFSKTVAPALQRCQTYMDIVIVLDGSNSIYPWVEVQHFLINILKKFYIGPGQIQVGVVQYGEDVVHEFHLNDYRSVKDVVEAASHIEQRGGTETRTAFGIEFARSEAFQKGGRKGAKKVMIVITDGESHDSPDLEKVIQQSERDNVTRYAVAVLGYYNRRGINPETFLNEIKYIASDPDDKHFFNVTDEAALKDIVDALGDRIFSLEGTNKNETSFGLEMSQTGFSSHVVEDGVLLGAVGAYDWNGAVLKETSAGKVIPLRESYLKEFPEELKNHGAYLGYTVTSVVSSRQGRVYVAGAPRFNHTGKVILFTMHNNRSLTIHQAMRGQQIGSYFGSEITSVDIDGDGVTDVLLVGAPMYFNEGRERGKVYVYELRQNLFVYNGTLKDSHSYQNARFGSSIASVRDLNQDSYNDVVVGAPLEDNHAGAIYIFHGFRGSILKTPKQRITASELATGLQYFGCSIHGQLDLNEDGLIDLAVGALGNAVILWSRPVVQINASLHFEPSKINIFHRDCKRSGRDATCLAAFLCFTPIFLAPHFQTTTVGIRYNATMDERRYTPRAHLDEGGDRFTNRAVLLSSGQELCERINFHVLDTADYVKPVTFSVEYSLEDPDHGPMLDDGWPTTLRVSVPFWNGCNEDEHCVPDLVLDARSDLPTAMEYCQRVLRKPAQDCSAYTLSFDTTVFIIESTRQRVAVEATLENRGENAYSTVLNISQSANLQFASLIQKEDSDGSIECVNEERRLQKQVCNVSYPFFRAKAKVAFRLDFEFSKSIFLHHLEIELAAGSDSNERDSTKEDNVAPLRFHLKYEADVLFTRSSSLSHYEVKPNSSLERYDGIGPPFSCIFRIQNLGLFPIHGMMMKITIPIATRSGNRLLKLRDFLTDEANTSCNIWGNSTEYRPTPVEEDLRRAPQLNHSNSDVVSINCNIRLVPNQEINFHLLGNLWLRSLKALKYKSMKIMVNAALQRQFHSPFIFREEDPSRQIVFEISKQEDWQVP
Sequence of human α11β1 (P05556 21-728 partner limits assumed): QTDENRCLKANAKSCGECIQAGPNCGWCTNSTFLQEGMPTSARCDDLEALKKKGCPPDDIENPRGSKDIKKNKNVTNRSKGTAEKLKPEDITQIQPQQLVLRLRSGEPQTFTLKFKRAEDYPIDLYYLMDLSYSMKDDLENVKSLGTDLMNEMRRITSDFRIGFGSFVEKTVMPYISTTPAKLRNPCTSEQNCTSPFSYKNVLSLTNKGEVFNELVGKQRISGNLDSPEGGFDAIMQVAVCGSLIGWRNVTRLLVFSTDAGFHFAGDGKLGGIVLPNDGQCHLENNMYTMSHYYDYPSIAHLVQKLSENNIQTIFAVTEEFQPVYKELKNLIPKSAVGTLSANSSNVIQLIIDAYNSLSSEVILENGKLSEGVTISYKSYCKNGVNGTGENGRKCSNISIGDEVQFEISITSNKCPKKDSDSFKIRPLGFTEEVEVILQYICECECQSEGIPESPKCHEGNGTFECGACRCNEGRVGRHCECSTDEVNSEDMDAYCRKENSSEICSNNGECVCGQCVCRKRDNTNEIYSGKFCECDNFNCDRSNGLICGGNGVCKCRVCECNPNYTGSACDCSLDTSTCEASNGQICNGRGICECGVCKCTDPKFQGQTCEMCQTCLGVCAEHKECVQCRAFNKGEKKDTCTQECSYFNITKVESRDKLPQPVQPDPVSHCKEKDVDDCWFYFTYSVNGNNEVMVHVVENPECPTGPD

Human α11β1 ELISA	Molecule
Yes	B1
Yes	B2
Yes	B3
Yes	B4
Yes	B5
Yes	B6
Yes	B7

tested on: CHO-K1 cells expressing human α11; experiment: Cell adhesion inhibition (xCelligence), type I collagen; assay type: cell-based; details: Yes/No
Outline: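 CHO-K1 cells expressing human α11 (0.6×10^6 cells/mL) were preincubated with mAbs across a concentration range for 20 min at 37° C, then seeded on wells coated with 100 ng/mL type I collagen and blocked with 3% BSA. Impedance-based adhesion was recorded over 6 h, and maximum adhesion was compared with untreated control.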

Molecule	Inhibition of CHO-K1 adhesion to collagen
B1	No
B2	No
B3	No
B4	Yes
B5	Yes
B6	Yes
B7	Yes
